{"source": "paper PMC4103484", "about": "“Functional effects of polymorphisms on glucocorticoid receptor modulation of human anxiogenic substance-P gene promoter activity in primary amygdala neurones”", "molecules": {"B1": {"name": "GRE-cons (dsDNA)", "DNA 1": "TAAGTTTATGGTTACAAACTGTTCTTAAAACGAGG", "DNA 2": "CCTCGTTTTAAGAACAGTTTGTAACCATAAACTTA"}, "B2": {"name": "RO (random oligonucleotide) (dsDNA)", "DNA 1": "CGAGCACCCTTCACCCTCCAGGCTTAACGG", "DNA 2": "CCGTTAAGCCTGGAGGGTGAAGGGTGCTCG"}}, "key": {"[1]": {"biological_target": "T1, glucocorticoid receptor alpha (GRα) (human) (UniProt P04150)", "T1 sequence": "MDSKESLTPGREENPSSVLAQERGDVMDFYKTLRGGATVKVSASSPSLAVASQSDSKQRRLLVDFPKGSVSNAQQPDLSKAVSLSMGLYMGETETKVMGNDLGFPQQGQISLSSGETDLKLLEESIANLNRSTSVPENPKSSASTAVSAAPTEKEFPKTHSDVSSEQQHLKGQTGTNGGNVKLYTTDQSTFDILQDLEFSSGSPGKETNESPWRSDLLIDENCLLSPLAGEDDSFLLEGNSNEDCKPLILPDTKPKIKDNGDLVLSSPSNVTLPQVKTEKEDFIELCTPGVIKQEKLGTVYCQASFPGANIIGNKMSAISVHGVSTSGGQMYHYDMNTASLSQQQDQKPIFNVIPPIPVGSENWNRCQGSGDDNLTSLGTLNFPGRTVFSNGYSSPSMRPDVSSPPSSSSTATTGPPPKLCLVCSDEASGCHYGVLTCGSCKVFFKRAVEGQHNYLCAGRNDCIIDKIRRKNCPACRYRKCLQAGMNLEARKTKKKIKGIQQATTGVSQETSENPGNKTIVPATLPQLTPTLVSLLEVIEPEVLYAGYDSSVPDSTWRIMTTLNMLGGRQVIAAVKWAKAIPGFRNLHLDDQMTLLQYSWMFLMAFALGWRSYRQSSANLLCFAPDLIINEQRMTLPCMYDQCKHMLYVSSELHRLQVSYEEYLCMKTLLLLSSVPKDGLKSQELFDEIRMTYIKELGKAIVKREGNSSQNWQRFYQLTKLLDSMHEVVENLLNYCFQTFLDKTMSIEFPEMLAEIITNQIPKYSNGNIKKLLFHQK", "experiment": "EMSA", "details": "reference; EMSA: 20 fmol biotin probe with 2.0 uM GRα or 10 ug nuclear extract; buffer as Hay et al. 2005 with EDTA replaced by 50 uM ZnSO4; competitor 100x; 6% native …"}, "[2]": {"biological_target": "T2, glucocorticoid receptor alpha (GRα) (human, UniProt P04150 1-777)", "experiment": "EMSA; EMSA: 20 fmol biotin probe with 2.0 uM GRα or 10 ug nuclear extract; buffer as Hay et al. 2005 with EDTA replaced by 50 uM ZnSO4; competitor 100x; 6% native gel, 0.5x TBE pH 8.3; binding salt, pH and temperature not stated", "details": "protein: recombinant; chain copies: 2; blunt"}, "[3]": {"biological_target": "T2, glucocorticoid receptor alpha (GRα)", "experiment": "competition; 100x unlabelled, vs 2GR probe; EMSA: 20 fmol biotin probe with 2.0 uM GRα or 10 ug nuclear extract; buffer as Hay et al. 2005 with EDTA replaced by 50 uM ZnSO4; competitor 100x; 6% native gel, 0.5x TBE pH 8.3; binding salt, pH and temperature not stated", "details": "protein: recombinant; chain copies: 2; blunt"}}}
{"molecule": "GAAGCAAAAAACGTCCTGTTCAACCCCTGCTCCTG (double strand) [SNP-G (SNPGR-G)]", "values": [{"measurement": "binding signal", "setting": "[1]", "value": "100 % of SNP-G"}]}
{"molecule": "B1", "values": [{"measurement": "binding result", "setting": "[2]", "value": "binds"}]}
{"molecule": "B2", "values": [{"measurement": "binding result", "setting": "[3]", "value": "no binding"}]}
